According to patent publication US20110239311A1, “Agonists of NR2F6 For Immunosupression” (Medizinische Universitat Innsbruck, priority 2008, published 2011):

T1: NR2F6 (Homo sapiens, UniProt P10588)
T1 construct: expressed in transfected cells; host or cells: Jurkat T cells (transient electroporation)
T1 sequence (P10588 1-404): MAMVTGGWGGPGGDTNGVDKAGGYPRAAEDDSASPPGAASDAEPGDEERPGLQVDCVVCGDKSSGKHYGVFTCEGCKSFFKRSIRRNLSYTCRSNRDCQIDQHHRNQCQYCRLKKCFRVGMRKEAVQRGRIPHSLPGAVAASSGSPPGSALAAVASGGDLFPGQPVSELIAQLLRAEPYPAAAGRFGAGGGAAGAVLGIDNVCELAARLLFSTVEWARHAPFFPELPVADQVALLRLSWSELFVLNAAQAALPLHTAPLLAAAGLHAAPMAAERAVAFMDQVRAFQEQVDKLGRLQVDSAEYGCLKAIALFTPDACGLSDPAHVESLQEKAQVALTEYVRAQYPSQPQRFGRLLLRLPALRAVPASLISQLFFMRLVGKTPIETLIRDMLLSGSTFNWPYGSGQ

T2: NR2F6-ER (UniProt P10588+P19785, G525R)
T2 construct: expressed in transfected cells; host or cells: Jurkat T cells (transient electroporation)
T2 sequence (P10588+P19785 with tags, fused parts or gaps P19785:G525R): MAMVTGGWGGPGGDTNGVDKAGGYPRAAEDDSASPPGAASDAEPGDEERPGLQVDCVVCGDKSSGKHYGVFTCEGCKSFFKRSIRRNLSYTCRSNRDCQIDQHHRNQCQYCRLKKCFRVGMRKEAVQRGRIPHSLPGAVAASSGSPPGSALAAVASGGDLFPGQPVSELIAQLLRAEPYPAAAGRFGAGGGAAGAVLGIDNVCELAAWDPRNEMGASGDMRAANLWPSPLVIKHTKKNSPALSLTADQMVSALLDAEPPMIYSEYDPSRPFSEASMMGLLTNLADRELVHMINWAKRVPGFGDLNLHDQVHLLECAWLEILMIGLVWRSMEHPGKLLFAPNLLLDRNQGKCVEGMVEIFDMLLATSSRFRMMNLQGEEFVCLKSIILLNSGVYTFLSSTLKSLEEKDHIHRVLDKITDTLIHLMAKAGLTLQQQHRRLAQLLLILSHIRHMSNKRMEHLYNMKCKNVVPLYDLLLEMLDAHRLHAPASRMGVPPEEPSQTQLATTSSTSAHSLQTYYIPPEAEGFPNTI


Legend:
CD4+ T cells = test: IL-2 secretion of transfected CD4+ T cells upon CD3 plus CD28 stimulation; format: cell-based, mouse; conditions: vs control transfection
Procedure: CD4+ T cells were negatively selected by magnetic cell sorting (Miltenyi Biotec). T cell populations were typically 95% CD4+, as determined by staining and flow cytometry. Cells were resuspended in solution from Nucleofactor mouse T cell kit and program X-01 following the Amaxa guidelines for cell-line transfection. In brief, up to 1×10^7 cells were mixed with 1.5 μM of synthetic ON-TARGETpIus siRNA predesigned by Dharmacon (i.e., order code 045088) as pool (see SEQ ID NOs: 19 to 26) or ON-TARGETplussiCONTROL nontargeting pool were nucleofected with the Amaxy Nucleofactor apparatus and immediately transferred into 37° C. prewarmed culture medium and cultured for a minimum of 24 hours before experimental analysis; see also FIG. 16.
Analysis of cytokine production: Cytokine production of mouse CD4^+ T cells after Th17 polarizing stimulation was assessed via the BioPlex technology (BioRad) according to manufacturer's instructions.

[1] = test system: IL-17A promoter:luciferase reporter; test: IL-17A promoter:luciferase reporter transrepression assay in Jurkat cells; format: cell-based, human; conditions: transient overexpression in Jurkat cells
Procedure: (§1) Jurkat-TAg cells (a kind gift from Dr. Crabtree, Stanford University, CA) have been transiently transfected with circular plasmid DNA by electroporation (BTX-T820 ElectroSquarePorator™, ITC, Biotech, Heidelberg, Germany), using predetermined optimal conditions (1×10^7 cells in 200 μl RPMI medium at 450 V/cm and 5 pulses of 99 msec), yielding approx. 40% transfection efficiency. NF-AT:AP-1 reporter gene expression was measured in transient cotransfection assays using 10 μg pSRα-CD28, 15 μg of the GFP or Nr2f6 expression vectors and 15 μg of the promoter firefly luciferase reporter (RLU1). The latter were a NF-AT:AP-1 composite site reporter (Macian et al., 2001), a NF-AT reporter construct containing three tandem copies of the NF-AT minimal consensus sequence and the proximal IL-17A promoter reporter (Liu et al., 2004). The proximal IL-17A promoter is also described elsewhere herein. After 21 h cells were stimulated with solid-phase CD3 and CD28 agonistic antibodies for 16 h or left unstimulated, as indicated and the firefly luciferase was measured employing the luciferase detection kit (Promega, Madison, Wis.) and the βJet-Luminometer (WALLAC, Turku, Finland).

[2] = test system: NFAT/AP-1 promoter:luciferase reporter; test: NFAT/AP-1 promoter:luciferase reporter transrepression assay in Jurkat cells; format: cell-based, human; conditions: transient overexpression in Jurkat cells
Procedure: as §1

NR2F6 = molecular target: T1, NR2F6; test: RARE containing renilla luciferase reporter assay in NR2F6 transfected Jurkat T cells; format: cell-based; conditions: CD3/CD28 with or without RA 20 microM
Procedure: Jurkat T cells were maintained in RPMI medium supplemented with 10% FCS (Life Technologies, Inc.). Transient transfection of cells was performed by electroporation in a BTX-T820 ElectroSquarePorator (ITC, Biotech, Heidelberg, Germany) apparatus using predetermined optimal conditions: 2×10^7 cells at 450 V/cm and 5 pulses of 99 msec. Optimix medium (Equibio, Kent, UK) was used for studies of promoter reporter gene expression. Reporter gene expression was measured in co-transfection assays using 15 μg of the NR2F6 wild type or mutant expression vectors and 5 μg of the RARE containing renilla luciferase reporter vector pTK-Renilla-Luc (Promega, Medison, Wi). After 24 hrs cells were stimulated with solid phase CD3 and CD28 antibodies with or without retinoic acid (RA at 20 microM) for 16 hrs, as indicated.

NR2F6-ER = molecular target: T2, NR2F6-ER; test: NF-AT/AP-1 promoter luciferase reporter assay in NR2F6-ER transfected Jurkat T cells; format: cell-based, human; conditions: transiently transfected Jurkat T cells
Procedure: Jurkat T cells were maintained in RPMI medium supplemented with 10% FCS (Life Technologies, Inc.). Transient transfection of cells was performed by electroporation in a BTX-T820 ElectroSquarePorator (ITC, Biotech, Heidelberg, Germany) apparatus using predetermined optimal conditions: 2×10^7 cells at 450 V/cm and 5 pulses of 99 msec. Optimix medium (Equibio, Kent, UK) was used for studies of promoter reporter gene expression. Reporter gene expression was measured in co-transfection assays using 15 μg of the NR2F6 wild-type or mutant expression vectors and 15 μg of the AP-1/NF-AT promoter firefly luciferase reporter (RLU1). For normalization 0.3 μg of the renilla luciferase reporter vector pTK-Renilla-Luc (Promega, Medison, Wi) (RLU2) has been used.

CD3/CD28-induced NF-AT/AP-1 composite element-dependent reporter (NR2F6-ER) | Molecule | IL-2 cytokine secretion (CD4+ T cells) | trans-repression of CD3/CD28 activation-induced IL-17A promoter:luciferase reporter [1] | trans-repression of CD3/CD28 activation-induced NFAT/AP-1 promoter:luciferase reporter [2] | transcriptional repressor activity (RARE reporter) (NR2F6)
– | NR2F6: recombinant overexpressed nuclear receptor subfamily 2, group F, member 6 (Ear2), SEQ ID NO: 2 (protein, listed as Homo sapiens) MAMVTGGWGGPGGDTNGVDKAGGYPRAAEDDSASPPGAASDAEPGDEERPGLQVDCVVCGDKSSGKHYGVFTCEGCKSFFKRSIRRNLSYTCRSNRDCQIDQHHRNQCQYCRLKKCFRVGMRKEAVQRGRIPHSLPGAVAASSGSPPGSALAAVASGGDLFPGQPVSELIAQLLRAEPYPAAAGRFGAGGGAAGAVLGIDNVCELAARLLFSTVEWARHAPFFPELPVADQVALLRLSWSELFVLNAAQAALPLHTAPLLAAAGLHAAPMAAERAVAFMDQVRAFQEQVDKLGRLQVDSAEYGCLKAIALFTPDACGLSDPAHVESLQEKAQVALTEYVRAQYPSQPQRFGRLLLRLPALRAVPASLISQLFFMRLVGKTPIETLIRDMLLSGSTFNWPYGSGQ | significantly suppresses IL-2 secretion responses | robust and reproducible trans-repression | robust and reproducible trans-repression | –
– | S83E: S83E mutant of NR2F6, Ser-83 phospho-mimic, DNA-binding deficient, SEQ ID NO: 8 (protein, listed as Homo sapiens, VARIANT (83)..(83) S83E mutation) MAMVTGGWGGPGGDTNGVDKAGGYPRAAEDDSASPPGAASDAEPGDEERPGLQVDCVVCGDKSSGKHYGVFTCEGCKSFFKREIRRNLSYTCRSNRDCQIDQHHRNQCQYCRLKKCFRVGMRKEAVQRGRIPHSLPGAVAASSGSPPGSALAAVASGGDLFPGQPVSELIAQLLRAEPYPAAAGRFGAGGGAAGAVLGIDNVCELAARLLFSTVEWARHAPFFPELPVADQVALLRLSWSELFVLNAAQAALPLHTAPLLAAAGLHAAPMAAERAVAFMDQVRAFQEQVDKLGRLQVDSAEYGCLKAIALFTPDACGLSDPAHVESLQEKAQVALTEYVRAQYPSQPQRFGRLLLRLPALRAVPASLISQLFFMRLVGKTPIETLIRDMLLSGSTFNWPYGSGQ | – | not able to suppress | not able to suppress | lost its transcriptional repressor activity
– | C112S: C112S zinc finger mutant of NR2F6, defective in DNA binding, SEQ ID NOs: 30 and 31 (protein, /note=“Description of artificial sequence amino acid sequence of C112S mutated NR2F6”) MAMVTGGWGGPGGDTNGVDKAGGYPRAAEDDSASPPGAASDAEPGDEERPGLQVDCVVCGDKSSGKHYGVFTCEGCKSFFKRSIRRNLSYTCRSNRDCQIDQHHRNQCQYSRLKKCFRVGMRKEAVQRGRIPHSLPGAVAASSGSPPGSALAAVASGGDLFPGQPVSELIAQLLRAEPYPAAAGRFGAGGGAAGAVLGIDNVCELAARLLFSTVEWARHAPFFPELPVADQVALLRLSWSELFVLNAAQAALPLHTAPLLAAAGLHAAPMAAERAVAFMDQVRAFQEQVDKLGRLQVDSAEYGCLKAIALFTPDACGLSDPAHVESLQEKAQVALTEYVRAQYPSQPQRFGRLLLRLPALRAVPASLISQLFFMRLVGKTPIETLIRDMLLSGSTFNWPYGSGQ | – | lost its transcriptional repressor activity | lost its transcriptional repressor activity | lost its transcriptional repressor activity
– | NR2F2 wild type: the closest relative of NR2F6, used as control (protein, UniProt P24468 1-414, looked up) COUP transcription factor 2: MAMVVSTWRDPQDEVPGSQGSQASQAPPVPGPPPGAPHTPQTPGQGGPASTPAQTAAGGQGGPGGPGSDKQQQQQHIECVVCGDKSSGKHYGQFTCEGCKSFFKRSVRRNLSYTCRANRNCPIDQHHRNQCQYCRLKKCLKVGMRREAVQRGRMPPTQPTHGQFALTNGDPLNCHSYLSGYISLLLRAEPYPTSRFGSQCMQPNNIMGIENICELAARMLFSAVEWARNIPFFPDLQITDQVALLRLTWSELFVLNAAQCSMPLHVAPLLAAAGLHASPMSADRVVAFMDHIRIFQEQVEKLKALHVDSAEYSCLKAIVLFTSDACGLSDVAHVESLQEKSQCALEEYVRSQYPNQPTRFGKLLLRLPSLRTVSSSVIEQLFFVRLVGKTPIETLIRDMLLSGSSFNWPYMAIQ | – | not able to suppress | not able to suppress | –
repressed | NR2F6-ER: conditionally activated NR2F6 estrogen-receptor ligand binding domain mutant (ERmut-LBD) fusion protein, SEQ ID NO: 10 (protein, /note=“Description of artificial sequence amino acid sequence of NR2F6 wild-type Er-LBD fusion mutant”) MAMVTGGWGGPGGDTNGVDKAGGYPRAAEDDSASPPGAASDAEPGDEERPGLQVDCVVCGDKSSGKHYGVFTCEGCKSFFKRSIRRNLSYTCRSNRDCQIDQHHRNQCQYCRLKKCFRVGMRKEAVQRGRIPHSLPGAVAASSGSPPGSALAAVASGGDLFPGQPVSELIAQLLRAEPYPAAAGRFGAGGGAAGAVLGIDNVCELAWDPRNEMGASGDMRAANLWPSPLVIKHTKKNSPALSLTADQMVSALLDAEPPMIYSEYDPSRPFSEASMMGLLTNLADRELVHMINWAKRVPGFGDLNLHDQVHLLECAWLEILMIGLVWRSMEHPGKLLFAPNLLLDRNQGKCVEGMVEIFDMLLATSSRFRMMNLQGEEFVCLKSIILLNSGVYTFLSSTLKSLEEKDHIHRVLDKITDTLIHLMAKAGLTLQQQHRRLAQLLLILSHIRHMSNKGMEHLYNMKCKNVVPLYDLLLEMLDAHRLHAPASRMGVPPEEPSQTQLATTSSTSAHSLQTYYIPPEAEGFPNTI | – | – | – | –
